Publication PMC8795421 (2022)

B1: DAF-Fc (decay accelerating factor, DAF/CD55, fused to the human IgG1 Fc region) (Fc fusion)
chain: DCGLPPDVPNAQPALEGRTSFPEDTVITYKCEESFVKIPGEKDSVICLKGSQWSDIEEFCNRSCEVPTRLNSASLKQPYITQNYFPVGTVVEYECRPGYRREPSLSPKLTCLQNLKWSTAVEFCKKKSCPNPGEIRNGQIDVPGGILFGATISFSCNTGYKLFGSTSSFCLISGSSVQWSDPLPECREIYCPAPPQIDNGIIQGERDHYGYRQSVTYACNKGFTMIGEHSIYCTVNNDEGEWSGPPPECRGKSLTSKVPPTVQKPTTVNVPTTEVSPTSQKTTTKTTTPNAQATRSTPVSRTTKHFHETTPNKGSGTTS
B2: Biotinylated recombinant CD97, N-terminal extracellular domain (residues 24-540) with Fc domain and avidin tag (Fc fusion)
chain: RGCARWCPQNSSCVNATACRCNPGFSSFSEIITTPTETCDDINECATPSKVSCGKFSDCWNTEGSYDCVCSPGYEPVSGAKTFKNESENTCQDVDECQQNPRLCKSYGTCVNTLGSYTCQCLPGFKFIPEDPKVCTDVNECTSGQNPCHSSTHCLNNVGSYQCRCRPGWQPIPGSPNGPNNTVCEDVDECSSGQHQCDSSTVCFNTVGSYSCRCRPGWKPRHGIPNNQKDTVCEDMTFSTWTPPPGVHSQTLSRFFDKVQDLGRDSKTSSAEVTIQNVIKLVDELMEAPGDVEALAPPVRHLIATQLLSNLEDIMRILAKSLPKGPFTYISPSNTELTLMIQERGDKNVTMGQSSARMKLNWAVAAGAEDPGPAVAGILSIQNMTTLLANASLNLHSKKQAELEEIYESSIRGVQLRRLSAVNSIFLSHNNTKELNSPILFAFSHLESSDGEAGRDPPAKDVMPGPRQELLCAFWKSDSDRGGHWATEGCQVLGSKNGSTTCQCSHLSSFAILMAHY
modifications: biotin (in situ biotinylation by BirA-ER during expression)

Assays:
Test in all cases: BLI
[1] = molecular target: B2
CD97 Ab with known Kd = molecular target: CD97 Ab with known Kd
[2] = molecular target: CD97 Ab with same binding site as DAF-Fc

Row | Binder | Kd [1] | Kd (CD97 Ab with known Kd) | Kd [2]
1 | B1 | 340 nM | – | –
2 | B2 | – | 7700 nM | 4.5 nM
